Results taken from patent US6528633.

Key:
[1] = system: clam E3-C/cyclosome complex, activated, partially purified
[2] = system: non-specific ubiquitin-protein ligase (E3) from clam oocyte Fraction 1A

recombinant human Ubc4 homolog, UbcH5, sequence (chain, as listed by the source): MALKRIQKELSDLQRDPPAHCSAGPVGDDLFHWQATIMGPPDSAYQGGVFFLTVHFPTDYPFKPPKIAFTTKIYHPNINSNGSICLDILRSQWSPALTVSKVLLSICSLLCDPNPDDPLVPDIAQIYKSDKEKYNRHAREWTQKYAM

Substance: recombinant human Ubc4 homolog, UbcH5
- stimulation of cyclin-ubiquitin ligation [1]: UbcH5 caused some stimulation of cyclin-ubiquitin ligation by the clam E3-C/cyclosome complex, but the amount of conjugates formed and their size ... were much lower than those obtained with the recombinant clam protein
- ligation of 125I-ubiquitin to high molecular weight conjugates [2]: UbcH5 strongly stimulated the ligation of 125I-ubiquitin to high molecular weight conjugates in the presence of non-specific E3 from clam oocytes
